Assay results: patent publication US20250277199, “NOVEL CRISPR-CAS NUCLEASES FROM METAGENOMES” (Brain Biotech AG, published 2025)

Target: T1, BMC10 (uncultured bacterium (metagenome))
T1 chain: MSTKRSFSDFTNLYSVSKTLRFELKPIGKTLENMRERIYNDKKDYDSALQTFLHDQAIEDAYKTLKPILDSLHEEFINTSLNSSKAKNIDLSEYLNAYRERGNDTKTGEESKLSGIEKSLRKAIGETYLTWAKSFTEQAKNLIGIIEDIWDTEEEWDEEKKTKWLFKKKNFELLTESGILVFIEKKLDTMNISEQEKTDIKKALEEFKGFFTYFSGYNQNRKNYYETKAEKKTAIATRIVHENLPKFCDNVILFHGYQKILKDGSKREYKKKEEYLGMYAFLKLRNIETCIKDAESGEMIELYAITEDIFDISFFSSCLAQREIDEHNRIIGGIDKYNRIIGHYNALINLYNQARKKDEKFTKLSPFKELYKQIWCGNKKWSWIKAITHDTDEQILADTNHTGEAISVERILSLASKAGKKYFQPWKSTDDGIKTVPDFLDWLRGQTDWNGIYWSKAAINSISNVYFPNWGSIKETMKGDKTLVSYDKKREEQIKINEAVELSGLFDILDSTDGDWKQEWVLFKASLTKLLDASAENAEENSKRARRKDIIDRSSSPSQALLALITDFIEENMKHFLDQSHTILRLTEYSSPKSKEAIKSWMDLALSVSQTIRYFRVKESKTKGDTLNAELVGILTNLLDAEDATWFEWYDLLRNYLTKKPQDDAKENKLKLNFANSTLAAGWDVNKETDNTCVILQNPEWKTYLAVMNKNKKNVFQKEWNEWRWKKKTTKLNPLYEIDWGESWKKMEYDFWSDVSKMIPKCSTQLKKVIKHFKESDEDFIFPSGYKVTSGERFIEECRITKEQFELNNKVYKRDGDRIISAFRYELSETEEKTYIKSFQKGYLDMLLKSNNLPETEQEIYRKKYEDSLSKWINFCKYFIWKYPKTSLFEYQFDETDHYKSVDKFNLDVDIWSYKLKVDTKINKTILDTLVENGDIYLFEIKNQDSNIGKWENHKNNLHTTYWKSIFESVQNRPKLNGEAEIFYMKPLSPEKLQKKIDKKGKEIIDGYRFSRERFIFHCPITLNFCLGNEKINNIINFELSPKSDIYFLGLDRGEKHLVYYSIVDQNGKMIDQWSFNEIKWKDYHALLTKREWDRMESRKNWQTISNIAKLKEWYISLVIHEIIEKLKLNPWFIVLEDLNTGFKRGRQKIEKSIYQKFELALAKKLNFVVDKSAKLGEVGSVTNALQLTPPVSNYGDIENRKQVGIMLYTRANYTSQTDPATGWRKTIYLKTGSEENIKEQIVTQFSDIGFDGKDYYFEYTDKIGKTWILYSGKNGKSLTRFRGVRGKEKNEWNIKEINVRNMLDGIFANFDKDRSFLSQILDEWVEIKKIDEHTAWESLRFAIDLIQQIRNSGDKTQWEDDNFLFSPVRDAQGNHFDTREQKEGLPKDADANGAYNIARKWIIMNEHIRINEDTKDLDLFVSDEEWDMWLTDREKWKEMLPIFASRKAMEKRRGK
Assay: cell_activity; PAM not stated; E. coli depletion, 30 C
Procedure, shortened: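 E. coli carrying arabinose-induced (0.2%) BMC nuclease, grown at 30° C., made electrocompetent and electroporated with 50-100 ng plasmid carrying gRNA against malQ. Transformants plated on selective M9-glucose agar with kanamycin/ampicillin (± nourseothricin), and growth scored after 48 h at 30° C.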

B1: malQ gRNA (BMC stem-loop + 24 nt spacer) ; malQ protospacer (ssRNA ; dsDNA)
RNA: GAUUUCUACUAUUGUAGAUGUGGCGGUACGUUGAUGCAUCGCG
DNA 1: GTGGCGGTACGTTGATGCATCGCG
DNA 2: CGCGATGCATCAACGTACCGCCAC
Binder B1 has an activity greater than 99.9 % colony reduction.
